In patent US6727407 (University of California, dated 2004):

Biological target: T1, GST-CCA1 (Arabidopsis thaliana, UniProt P92973 1-608)
T1 construct: Immobilized on glutathione-agarose beads; also called pGEX-CCA1 product; not shown: glutathione-S-transferase (GST) of pGEX-3X (Pharmacia)
Experiment: GST pull-down of 35S-labeled in vitro translated protein, SDS-PAGE autoradiography
Description: CK2 subunits and GBF4 labeled with [^35S]methionine were synthesized by coupled transcription-translation with wheat germ extract (Promega TNT). For in vitro binding, 20 µl of the reactions were added to 200 µl of binding buffer [20 mM Hepes pH 7.6, 100 mM KCl, 10% glycerol, 5 mM EDTA, 0.02% NP40, 1 mM dithiothreitol (DTT), 5 mg/ml bovine serum albumin (BSA)] followed by 10 µl of glutathione-agarose beads with bound GST or GST-CCA1 and incubated at 4° C. The beads were washed with binding buffer, then with binding buffer without BSA. Bound proteins were eluted with 1X SDS-polyacrylamide gel electrophoresis (PAGE) sample buffer and resolved by 12.5% SDS-PAGE. ^35S-labeled bands were detected by autoradiography, and quantitation was performed with a PhosphorImager (Molecular Dynamics).

T1 sequence (P92973 whole entry): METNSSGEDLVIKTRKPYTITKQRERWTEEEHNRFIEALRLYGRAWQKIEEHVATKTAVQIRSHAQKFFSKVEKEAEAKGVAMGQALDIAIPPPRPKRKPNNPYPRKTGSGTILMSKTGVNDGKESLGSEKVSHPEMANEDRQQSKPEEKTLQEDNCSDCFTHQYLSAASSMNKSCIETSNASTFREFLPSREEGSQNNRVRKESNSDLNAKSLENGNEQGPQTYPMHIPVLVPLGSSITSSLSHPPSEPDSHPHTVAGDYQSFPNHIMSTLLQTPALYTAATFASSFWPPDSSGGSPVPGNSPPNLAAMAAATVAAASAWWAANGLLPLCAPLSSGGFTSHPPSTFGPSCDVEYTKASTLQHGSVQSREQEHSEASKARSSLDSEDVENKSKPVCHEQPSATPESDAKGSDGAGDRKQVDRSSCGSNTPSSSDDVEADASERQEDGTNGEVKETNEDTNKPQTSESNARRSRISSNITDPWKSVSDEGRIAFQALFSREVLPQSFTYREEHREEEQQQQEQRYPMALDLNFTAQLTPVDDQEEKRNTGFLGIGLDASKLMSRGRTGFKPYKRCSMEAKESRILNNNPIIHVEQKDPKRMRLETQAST

B1: GBF4, a bZIP transcription factor (35S-labeled, in vitro translated) (other, UniProt P42777 1-270, looked up)
chain: MASFKLMSSSNSDLSRRNSSSASSSPSIRSSHHLRPNPHADHSRISFAYGGGVNDYTFASDSKPFEMAIDVDRSIGDRNSVNNGKSVDDVWKEIVSGEQKTIMMKEEEPEDIMTLEDFLAKAEMDEGASDEIDVKIPTERLNNDGSYTFDFPMQRHSSFQMVEGSMGGGVTRGKRGRVMMEAMDKAAAQRQKRMIKNRESAARSRERKQAYQVELETLAAKLEEENEQLLKEIEESTKERYKKLMEVLIPVDEKPRPPSRPLSRSHSLEW
modifications: [35S]methionine label
notes: Negative control
  binding result: no binding
